From the supplement of paper PMC9170038

System: K4 kissing-loop RNA reporter
Test: apparent KD of K4 kissing-loop reporter; higher = weaker reporter binding
Details: Eterna round: R107
Description: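 RNA-MaP round R107: designed RNA switches with theophylline, tryptophan, arginine or FMN aptamers are transcribed on-chip within common flanks. They are titrated with a labelled K4 kissing-loop RNA reporter in RNA-MaP buffer (100 mM Tris pH 7.5, 80 mM KCl, 4 mM MgCl2), without ligand or with the indicated ligand. Median apparent KD per design.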

[1] = input ligand: theophylline 20 uM
[2] = input ligand: tryptophan 2.4 mM
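Note: bound reporter read as fluorescence of individual clusters on recovered sequencing chips by microscopy, with normalized cluster intensities fitted with a binding model.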

Sequence	apparent KD of K4 kissing-loop reporter (input ligand: FMN 200 uM) [nM]	apparent KD of K4 kissing-loop reporter (input ligand: arginine 13.2 mM) [nM]	apparent KD of K4 kissing-loop reporter (input ligand: none) [nM]	apparent KD of K4 kissing-loop reporter [1] [nM]	apparent KD of K4 kissing-loop reporter [2] [nM]
CAUGGGCCAGUGAUGUUGGCGCGCACGGGACGAGGACCGGUACGGCCGCCACUCGCUUUUGCUCUUAUCGGGAUAAGAAAACCGA [Enveerorle]	453	134	567	309	635
CGUUUAGUGAUGUUAAGCGUCCACUACGAUACCAGAACUAUAACCUUCCCUUGGCAGCGUUUAUAUUGUAACUCAUGUGUUAAUU [theeternabot_exclusion_KL_Theo_A_11]	520	296	474	503	468
CCAUCGCUAUUCGAUACCAGCUACUUAGUGAUGUUAAGUUUAUAUCCACUGUAGGUGGAAAGCCCUUGGCAGCGAAUAGUGAUGG [Theophylline B K4 25]	436	412	491	223	425
AGUGCACUGGCAGGAUAUGUACAGUGAUGUUGUGUAUGUCAGCAAGUCAAAGACUUGCUCUUCUGUGCAGAAGGGCCUGUGUACA [#05 K4 FMN B Exclusion]	442	526	668	532	534
ACGACGCAUAGUGAUACCAGCUAUAUAUGAGUGAUGUUCUACCUAAAAUGGUAAUAAUUUAGCCCUUGGCAGCACUAUGCGUCAG [KL-SSTheoB4]	380	456	377	562	262
GGAGAGCGGAACGAUACCAGCUGCGGCACGCACCGGAAGUUAAGCCAGUGAUGUUGGCGGAGCCCUUGGCAGCGUGCGCGCGUCC [Abeusma]	122	93.3	104	145	105
ACACUAUCGUCAUAGACGGUAGUGAACACACAGGAUAUGAGUGAUGUUAGAAGGGUGUAAGACUGUAUCGAAUAGAUACAGUCAA [FmnA 7 #K4BetweenAptamer #OpenEnded]	400	142	204	192	190
AUUUUUUUAUCAGGAUAUUAGUGAUGGUUUGUUUUGUUAGUGAUGUUGAUAUUUGUUUUAUGUAUUUAAGAAGGGAUUGAGAUGU [seesullin]	67	25.3	44.1	29.2	48.9
GGAGUUACCUGGGAUACCAGCCGGAGGCCCAGAGCUCGGAGUGAUGUUCUGGGAUGUUUCGGCCCUUGGCAGCUCUGGGUCUCCG [#2 Exclusion - Theophylline B Attempt #5 (HarryS)]	1050	627	806	433	1410
AAGGAAUGUAUAGAUUAUAUACAUUCAACAGAGGAUAUGCAUUAUUGCAGAAGGCUGAAUGCAGUGAUGUUGCAAUAAUUAUUUA [#09 K4 FMN A Same State]	60.5	199	181	291	129
GCCGUACGCAUGGAUACCAGCGUACGUCACCUAGCAGUGAUGUUGCUAUUGCCACGUAAACGCCCUUGGCAGCCAUGCGUACGGC	495	448	478	181	445
AGCUCAGAGUGACUCGAUAAGAGUCACAAACGAGGACCGGUACGGCCGCCACUCGAAAUAACGAGAGUGAUGUUCUCACUGAGCA [FiskerMod 11 - Jieux - Same State Tryptophan A]	1150	635	1260	808	378
AAGCAGUCACUCGAAGCCAUCGAAGAUGGCCGAGGACCGGUACGGCCGCCACUCGGAGUGAUGUUCCGAAGACUGCAAAAUAAAA	313	303	355	363	306
UGCGCUGUGUACUGAAAUGUUCUGCGGGAUACCAGAGUCUUUUUAUUCCCUUGGCAGCUUGAGUGAUGUUUGAUGCCGUUCUUGU [tffeymullin]	494	279	513	521	435
UGAUUUAACUGAAGGAGCGGCAAUAGAGAAGGAAAUAUAGUGAUGUUAUAUAAGAGAGAGAGCCAGGUAGGUCGCAGAGGGAGGA [ExArgB.F]	181	128	137	171	151
UAGAGAUCGAGAAGGAGCGAGAAAGCUAGUACAUAUGUACUAGCAAAGCAGUGAUGUUGCACUCAGGUAGGUCGCUCGAUCUCAU [AK1.1 SS Arginine B]	337	267	366	432	305
GCUAAGGAGUGAUGUUCCAAGUGAUGUUAACGAGGACCGGUACGGCCGCCACUCGAUACGGCCGGACCGUAAGAUAAACUACAGC [Same State - Tryptophan A (Freestyle 6)]	206	182	213	279	194
AAAUUUUAAAGUGAUACCAGACAUCUCUAUUACAUUAAUAUAGCUAAGUGAUGUUUAGCAGUCCCUUGGCAGCACAAUUUAAUUA [JR_SSTheophyB_Sub012]	336	316	334	474	266
CGCGCCCAGCCGGAUACCAGUGACCCGCUGGGAACCGCGGGCCCAGAGUGAUGUUCGGGACACCCUUGGCAGCCGCCUGGGCGGC [#2 Same State - Theophylline B Attempt #9 (HarryS)]	1370	229	999	717	766
ACGUAGUUCUAGGAUACCAGCCAAGGCCCAGGACAAAAGUCCUGGGUCGCCAGUGAUGUUGGCCCUUGGCAGCCUAGAACUACGA [Omei KL Theo B Exc B v11]	421	358	457	387	444
UGAUACCAGACGGCCGCCACUUCCGUAAGUCAAAGACUUGCCAAGGGAAUCGUCCAGUGAUGUUGGAGGACCGGGUCUGGUAUCU [FiskerMod 5 - Jieux - Exclusion - Tryptophan B]	677	491	725	511	550

Sequence	apparent KD of K4 kissing-loop reporter (input ligand: FMN 200 uM) [nM]	apparent KD of K4 kissing-loop reporter (input ligand: arginine 13.2 mM) [nM]	apparent KD of K4 kissing-loop reporter (input ligand: none) [nM]	apparent KD of K4 kissing-loop reporter [1] [nM]	apparent KD of K4 kissing-loop reporter [2] [nM]
AAUUGAGUGACGGCCGCCACUAGAGUGAUUUUUUUGUUUGAGUGAUGUUUUGAUGUUUGAUUUUGUAGGACCGGGUUGAGUGAUG [qqxzmullin]	305	306	357	528	247
UAAUAUAAUCUGUCGUUUACAAUAUUUAGUCAGGAUAUCGUAUAUUCGAGAAGGGACACUAUCUAGUGAUGUUAGAUAUUUCGUU [JR_ExcFMNA_Sub015]	51	81.4	59.6	76.6	54.6
AACGGCCAGUCGGCCGCCACUCGAUGCAGUGAUGUUGCUAACUUUCUAAAAGAGUGAUGUUCAUGGAGGACCGGGACUAGUGUAA [#30 K4 Tryptophan B Exclusion]	317	244	291	255	241
GAGAUAGAGGCGGCCGCCACUAGUGAUGUUGGUGAUGUUAGAUAGAGAAUAGAACGGGUACUCCCUAGGACCGGGCCAGAUGGAG [#04 K4 Tryptophan B Exclusion]	63.8	34.9	58.5	49.4	53
UUUUUUAAUGGAAGGAGCGCGUGGGCGCAGUGAUGUUGCGCCCGACAUCACUUCAACUUAACGCAGGUAGGUCGCCAUUAUUUUU [Arginine B (Excl) V6]	136	128	122	119	127
AGUUCUUGCCGAAGGAGCGAGGCAGAGUGAUGUUCUGCAGAUGUCGAAAGACAUCAACUGCCUCAGGUAGGUCGCGGCAUGAACA [#05 K4 Arginine B Exclusion]	114	74	99.6	87.3	108
CGAAGAAAGGUAUGUGGGAUCUGCGCGUAACGAGGACCGGUACGGCCGCCACUCGACGUCGCAUACGGCCCAGUGAUGUUGGGUG [theeternabot_sameState_KL_Trp_A_14]	74	55.9	75.4	74.9	53.4
AUCCGAGAAUAUGAUACCAGCUGAGUGUAUCAAGACCGUAUCUCCCGUGCUAGUGAUGUUAGCCCUUGGCAGCAUAUGAAAGCGG [theeternabot_exclusion_KL_Theo_B_15]	635	518	467	517	570
ACUCCGAGUGAUGUUAAGAGAUUCUCUGUUAAGGAUAUUUUGCGCAAAAGAAGGUAACCCGGUUUUCGUAAUCUGUUAAUGCGGA [theeternabot_exclusion_KL_FMN_A_38]	572	408	581	532	503
AUUUGUUUAUGUGAUACCAGACUUUGCAGUGAUGUUGCAUUUAUUUUAGAAUUUUAUUUAGUCCCUUGGCAGCACUAUGUAUUUA [JR_SSTheophyB_Sub007]	47	90.4	53.1	92.5	45.9
UAUUGUACAGGGAAAUUGAUAAUAGACUUACGAGGACCGGUACGGCCGCCACUCGAUAGUCGAGUGAUGUUCGAAUGCUAUUGAU [Attempt 1]	218	210	211	314	132
AUAAACUUGCAGUGAUGUUGCAAGUGAGACUAGGAUAUCAGGAAGCUGAGAAGGAGUCAUCUCCUUCAAACAUCACUAUGAAGGA [whbob_SS_FMNA__2th178]	403	287	336	232	292
AGAACUGUCUUGGAUACCAGUGAUGUUGGUAUCUGUGUGUGAGUGCAAAGCGUCCCACAUUGCCCUUGGCAGCUAAGACUGUUCA [Omei KL Theo B Exc A v1]	147	129	137	182	132
AGGGCUGAGAGCGAUACCAGCGGAUACUAUAUGGUCCAAUAGAGUGAUGUUUUAUAAAGCCGCCCUUGGCAGCGCAAUCUAUUAG [XTheo-B4]	1330	423	501	982	453
AAUUUCGGAUACAUCAUAGUUUUAAUUCGGCGAGGACCGGUACGGCCGCCACUCGGUAUAGACGCGUCCAGUGAUGUUGGCGCUU [theeternabot_sameState_KL_Trp_A_45]	262	193	237	260	223
CCGAGCCUGACGAAAGUCAGGCUCUGCGAGCGAGGACCGGUACGGCCGCCACUCGGUGCAGUGAUGUUGCAUGGCCGCAAGGCCG [#2 Exclusion - Tryptophan A Attempt #22 (HarryS)]	156	223	240	261	312
AGUACAAUGGCGGCCGCCACUCAACAGCAGAUCAAAGAUCUGCUUCACUCAGUGAUGUUGAGUGAGAGGACCGGGCCUUUGUACA [Omei KL Tryp B SS B v4]	793	614	783	853	216
UAAACCAAAUUACGUCACCUUGUCCAAUCUAAGGAUAUGUGAUUCCACAGAAGGUAGCCACGGGAGUGAUGUUCGCGUUAAGGCG [theeternabot_exclusion_KL_FMN_A_31]	475	388	465	460	419
UUUUGCGCGUACGAUACCAGUAUCUGUAAGAGUGAUGUUCAGCGCUGAAGACAGCAGCGAUACCCUUGGCAGCGUUACAUGCUAG [theeternabot_sameState_KL_Theo_B_22]	797	422	553	475	530
GUACGCUUCCGAGUGAUGUUCGGUAAUAGUUAGGAUAUCGUUUUUUCGAGAAGGAACUGAAUGAGGAAACUCGUUCGAAGUGUAC [FMN A 16]	395	266	380	424	266
GCGUCAUCGAAAGGAUAUGGAGUAGUGAUGUUGAUCCAUAUGCUCACGCAUAGCCGAGAACAUCGACCAGAAGGUUCAAGAACUG [theeternabot_exclusion_KL_FMN_B_41]	672	509	757	520	459
